According to paper PMC7233526 (Biochemistry, 2020):

T1: full-length rat Adrenodoxin (Adx), wild type (rat, UniProt P24483 65-188)
T1 sequence (looked up): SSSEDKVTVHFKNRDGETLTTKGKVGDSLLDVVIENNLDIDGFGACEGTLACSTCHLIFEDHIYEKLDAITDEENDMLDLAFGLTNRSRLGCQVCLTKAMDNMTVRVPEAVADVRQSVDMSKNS

B1: rat CYP24A1 (cytochrome P450 24A1), S57D, without the 32 residue leader sequence (enzyme, UniProt Q09128 33-514, looked up)
chain: SASRAPKEVPLCPLMTDGETRNVTDLPGPTNWPLLGSLLEIFWKGGLKKQHDTLAEYHKKYGQIFRMKLGSFDSVHLGSPSLLEALYRTESAHPQRLEIKPWKAYRDHRNEAYGLMILEGQEWQRVRSAFQKKLMKPVEIMKLDKKINEVLADFLERMDELCDERGRIPDLYSELNKWSFESICLVLYEKRFGLLQKETEEEALTFITAIKTMMSTFGKMMVTPVELHKRLNTKVWQAHTLAWDTIFKSVKPCIDNRLQRYSQQPGADFLCDIYQQDHLSKKELYAAVTELQLAAVETTANSLMWILYNLSRNPQAQRRLLQEVQSVLPDNQTPRAEDLRNMPYLKACLKESMRLTPSVPFTTRTLDKPTVLGEYALPKGTVLTLNTQVLGSSEDNFEDSHKFRPERWLQKEKKINPFAHLPFGIGKRMCIGRRLAELQLHLALCWIIQKYDIVATDNEPVEMLHLGILVPSRELPIAFRPR

What was measured:
[1] = target: T1, full-length rat Adrenodoxin (Adx), wild …; experiment: cross-linking
[2] = target: B1; experiment: NMR titration

| Binder | stoichiometry N [1] | binding result [2] |
| --- | --- | --- |
| B1 | 1 | – |
| rat Adrenodoxin L80Q (natural protein, UniProt P24483 65-188, looked up) SSSEDKVTVHFKNRDGETLTTKGKVGDSLLDVVIENNLDIDGFGACEGTLACSTCHLIFEDHIYEKLDAITDEENDMLDQAFGLTNRSRLGCQVCLTKAMDNMTVRVPEAVADVRQSVDMSKNS | – | binds |
